Data: PMC2756588

T1: Bbc1, P47068
T1 sequence (P47068 1-78, looked up): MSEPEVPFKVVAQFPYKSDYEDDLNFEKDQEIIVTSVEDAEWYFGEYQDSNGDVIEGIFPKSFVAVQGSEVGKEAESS

T2: Pex13, P80667
T2 sequence (P80667 295-386, looked up): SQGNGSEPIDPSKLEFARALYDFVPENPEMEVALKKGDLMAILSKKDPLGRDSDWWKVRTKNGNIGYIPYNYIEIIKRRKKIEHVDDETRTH

T3: Lsb3, P43603
T3 sequence (P43603 385-451, looked up): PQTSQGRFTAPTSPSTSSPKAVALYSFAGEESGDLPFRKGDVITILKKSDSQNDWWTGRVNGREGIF

T4: Abp1, P15891
T4 sequence (P15891 535-592, looked up): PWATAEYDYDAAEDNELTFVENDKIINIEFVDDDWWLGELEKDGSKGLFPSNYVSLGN

T5: Lsb1, P53281
T5 sequence (P53281 45-122, looked up): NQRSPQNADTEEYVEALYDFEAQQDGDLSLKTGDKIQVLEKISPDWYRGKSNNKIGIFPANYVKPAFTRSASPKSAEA

T6: Bzz1-1, P38822
T6 sequence (P38822 478-572, looked up): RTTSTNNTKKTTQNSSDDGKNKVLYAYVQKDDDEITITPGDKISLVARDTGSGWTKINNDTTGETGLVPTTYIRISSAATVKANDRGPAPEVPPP

T7: Boi1, P38041
T7 sequence (P38041 1-86, looked up): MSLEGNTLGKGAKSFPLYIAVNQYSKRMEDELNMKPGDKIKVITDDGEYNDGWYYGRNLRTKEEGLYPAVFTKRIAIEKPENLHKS

T8: Pin3, Q06449
T8 sequence (Q06449 53-122, looked up): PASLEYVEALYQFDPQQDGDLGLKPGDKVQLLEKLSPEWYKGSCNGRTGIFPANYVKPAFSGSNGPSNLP

T9: Myo5, Q04439
T9 sequence (Q04439 1072-1160, looked up): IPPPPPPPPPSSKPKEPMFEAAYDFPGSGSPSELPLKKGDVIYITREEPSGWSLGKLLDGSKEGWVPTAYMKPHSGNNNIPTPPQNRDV

T10: Hof1, Q05080
T10 sequence (Q05080 590-669, looked up): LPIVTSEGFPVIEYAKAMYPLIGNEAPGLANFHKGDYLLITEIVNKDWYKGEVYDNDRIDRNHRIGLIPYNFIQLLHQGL

T11: Hse1, P38753
T11 sequence (P38753 208-285, looked up): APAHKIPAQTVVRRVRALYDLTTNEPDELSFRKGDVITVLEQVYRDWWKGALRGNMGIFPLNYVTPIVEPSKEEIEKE

T12: Sla1-2, P32790
T12 sequence (P32790 60-140, looked up): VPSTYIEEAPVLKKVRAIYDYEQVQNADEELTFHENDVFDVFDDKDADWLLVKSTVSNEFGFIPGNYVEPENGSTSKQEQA

T13: Cdc25, P04821
T13 sequence (P04821 50-136, looked up): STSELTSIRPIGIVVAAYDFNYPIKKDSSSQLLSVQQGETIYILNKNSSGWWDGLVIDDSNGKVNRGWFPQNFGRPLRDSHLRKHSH

T14: Nbp2, Q12163
T14 sequence (Q12163 103-180, looked up): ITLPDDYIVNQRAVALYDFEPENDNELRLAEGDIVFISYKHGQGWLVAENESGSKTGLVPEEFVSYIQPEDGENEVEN

T15: Bud14, P27637
T15 sequence (P27637 247-328, looked up): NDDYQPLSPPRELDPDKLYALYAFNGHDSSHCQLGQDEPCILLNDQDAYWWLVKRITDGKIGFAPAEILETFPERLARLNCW

T16: Sla1-3, P32790
T16 sequence (P32790 344-424, looked up): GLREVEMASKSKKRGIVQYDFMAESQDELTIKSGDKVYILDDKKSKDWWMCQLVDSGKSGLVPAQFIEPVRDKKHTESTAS

T17: Bzz1-2, P38822
T17 sequence (P38822 568-633, looked up): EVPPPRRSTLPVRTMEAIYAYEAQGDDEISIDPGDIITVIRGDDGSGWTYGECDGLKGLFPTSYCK

T18: Lsb4, P32793
T18 sequence (P32793 402-468, looked up): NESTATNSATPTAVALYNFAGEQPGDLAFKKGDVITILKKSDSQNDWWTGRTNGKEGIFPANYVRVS

T19: Fus1, P11710
T19 sequence (P11710 432-512, looked up): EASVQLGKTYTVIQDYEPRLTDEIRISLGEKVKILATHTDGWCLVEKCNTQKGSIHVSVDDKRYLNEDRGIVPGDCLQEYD

T20: Cyk3, Q07533
T20 sequence (Q07533 1-83, looked up): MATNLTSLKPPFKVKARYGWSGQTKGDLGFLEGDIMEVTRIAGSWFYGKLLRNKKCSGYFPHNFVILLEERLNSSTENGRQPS

T21: Boi2, P39969
T21 sequence (P39969 32-116, looked up): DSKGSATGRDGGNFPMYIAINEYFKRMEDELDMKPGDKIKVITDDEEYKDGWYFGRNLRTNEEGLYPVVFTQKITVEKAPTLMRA


Key:
Test in all cases: SPOT array
Bem1-2, P29366 = details: median of control spots 4347
Bbc1, P47068 = molecular target: T1, Bbc1, P47068; details: median of control spots 796
Rvs167, P39743 = details: median of control spots 2707
Pex13, P80667 = molecular target: T2, Pex13, P80667; details: median of control spots 1341
Lsb3, P43603 = molecular target: T3, Lsb3, P43603; details: median of control spots 406
Myo3, P36006 = details: median of control spots 468
Abp1, P15891 = molecular target: T4, Abp1, P15891; details: median of control spots 935
Bem1-1, P29366 = details: median of control spots 4282
Lsb1, P53281 = molecular target: T5, Lsb1, P53281; details: median of control spots 388
Bzz1-1, P38822 = molecular target: T6, Bzz1-1, P38822; details: median of control spots 4446
Boi1, P38041 = molecular target: T7, Boi1, P38041; details: median of control spots 1162
Pin3, Q06449 = molecular target: T8, Pin3, Q06449; details: median of control spots 2171
GST = details: median of control spots 978
Myo5, Q04439 = molecular target: T9, Myo5, Q04439; details: median of control spots 471
Hof1, Q05080 = molecular target: T10, Hof1, Q05080; details: median of control spots 4086
Hse1, P38753 = molecular target: T11, Hse1, P38753; details: median of control spots 1727
Sla1-2, P32790 = molecular target: T12, Sla1-2, P32790; details: median of control spots 712
Sho1, P40073 = details: median of control spots 1148
Cdc25, P04821 = molecular target: T13, Cdc25, P04821; details: median of control spots 969
Nbp2, Q12163 = molecular target: T14, Nbp2, Q12163; details: median of control spots 357
Bud14, P27637 = molecular target: T15, Bud14, P27637; details: median of control spots 956
Sla1-3, P32790 = molecular target: T16, Sla1-3, P32790; details: median of control spots 5475
Bzz1-2, P38822 = molecular target: T17, Bzz1-2, P38822; details: median of control spots 4538
Lsb4, P32793 = molecular target: T18, Lsb4, P32793; details: median of control spots 397
Fus1, P11710 = molecular target: T19, Fus1, P11710; details: median of control spots 1200
Cyk3, Q07533 = molecular target: T20, Cyk3, Q07533; details: median of control spots 1451
Boi2, P39969 = molecular target: T21, Boi2, P39969; details: median of control spots 1161

Sequence of Bem1-2, P29366 (P29366 139-227): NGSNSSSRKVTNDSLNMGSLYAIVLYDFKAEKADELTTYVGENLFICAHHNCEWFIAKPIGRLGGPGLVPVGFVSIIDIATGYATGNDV
Sequence of Rvs167, P39743 (P39743 419-482): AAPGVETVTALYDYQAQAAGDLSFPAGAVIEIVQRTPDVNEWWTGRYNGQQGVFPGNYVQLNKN
Sequence of Bem1-1, P29366 (P29366 55-141): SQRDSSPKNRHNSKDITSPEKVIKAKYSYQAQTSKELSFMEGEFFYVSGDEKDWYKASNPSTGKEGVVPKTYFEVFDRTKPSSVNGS
Sequence of Sho1, P40073 (P40073 287-367): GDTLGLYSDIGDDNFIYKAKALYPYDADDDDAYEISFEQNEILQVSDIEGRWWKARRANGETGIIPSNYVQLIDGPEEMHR

Row | SPOT intensity (Bem1-2, P29366) | SPOT intensity (Bbc1, P47068) | SPOT intensity (Rvs167, P39743) | SPOT intensity (Pex13, P80667) | SPOT intensity (Lsb3, P43603) | SPOT intensity (Myo3, P36006) | SPOT intensity (Abp1, P15891) | SPOT intensity (Bem1-1, P29366) | SPOT intensity (Lsb1, P53281) | SPOT intensity (Bzz1-1, P38822) | SPOT intensity (Boi1, P38041) | SPOT intensity (Pin3, Q06449) | SPOT intensity (GST) | SPOT intensity (Myo5, Q04439) | SPOT intensity (Hof1, Q05080) | SPOT intensity (Hse1, P38753) | SPOT intensity (Sla1-2, P32790) | SPOT intensity (Sho1, P40073) | SPOT intensity (Cdc25, P04821) | SPOT intensity (Nbp2, Q12163) | Binder | other results
1 | 0 | 8 | 21 | 16 | 24 | 11 | 14 | 0 | 819 | 0 | 1 | 327 | 3 | 5 | 1 | 2 | 2 | 9 | 0 | 1 | YYNRQELALPKRMSS | SPOT intensity (Bud14, P27637): 3; SPOT intensity (Sla1-3, P32790): 7; SPOT intensity (Bzz1-2, P38822): 4; SPOT intensity (Lsb4, P32793): 45; SPOT intensity (Fus1, P11710): 6; SPOT intensity (Cyk3, Q07533): 3; SPOT intensity (Boi2, P39969): 1
2 | 3 | 247 | 833 | 133 | 658 | 63 | 24 | 1 | 1590 | 3 | 0 | 55 | 0 | 21 | 1 | 22 | 0 | 14 | 0 | 1 | SRQAIPPPVPNRPGG | SPOT intensity (Bud14, P27637): 0; SPOT intensity (Sla1-3, P32790): 3; SPOT intensity (Bzz1-2, P38822): 0; SPOT intensity (Lsb4, P32793): 373; SPOT intensity (Fus1, P11710): 1; SPOT intensity (Cyk3, Q07533): 1; SPOT intensity (Boi2, P39969): 0
3 | 12 | 40 | 0 | 5 | 0 | 3 | 74 | 1 | 467 | 3 | 1 | 9 | 1 | 2 | 13 | 20 | 0 | 39 | 5 | 2 | NRPAIRIPSLKKPAL | SPOT intensity (Bud14, P27637): 13; SPOT intensity (Sla1-3, P32790): 14; SPOT intensity (Bzz1-2, P38822): 0; SPOT intensity (Lsb4, P32793): 6; SPOT intensity (Fus1, P11710): 1; SPOT intensity (Cyk3, Q07533): 0; SPOT intensity (Boi2, P39969): 0
4 | 1 | 30 | 0 | 0 | 0 | 1 | 18 | 0 | 576 | 0 | 3 | 4 | 2 | 1 | 5 | 4 | 1 | 38 | 16 | 4 | NQARKPFLLPATELS | SPOT intensity (Bud14, P27637): 19; SPOT intensity (Sla1-3, P32790): 2; SPOT intensity (Bzz1-2, P38822): 0; SPOT intensity (Lsb4, P32793): 0; SPOT intensity (Fus1, P11710): 0; SPOT intensity (Cyk3, Q07533): 3; SPOT intensity (Boi2, P39969): 0
